Data from the supplement of paper PMC10065799, “High-throughput profiling of sequence recognition by tyrosine kinases and SH2 domains using bacterial peptide display” (eLife, 2023).

What was measured:
Grb2 SH2 = Grb2 SH2 (UniProt P62993); test: SH2 binding enrichment of the phosphorylated peptide, bacterial display (enrichment ratio); higher = better substrate or ligand; peptides without Tyr show the background
SHP2-C SH2 = test: as above
c-Src SH2 = test: as above
MERTK = MERTK (UniProt Q12866); test: phosphorylation enrichment, bacterial display (enrichment ratio); higher = better substrate or ligand; peptides without Tyr show the background
EPHB1 = EPHB1 (UniProt P54762); test: as above
c-Src = test: as above
EPHB2 = EPHB2 (UniProt P29323); test: as above
c-Abl (mouse) = test: as above
Hck = Hck (UniProt P08631); test: as above
Fer (mouse) = test: as above
Fyn = Fyn (UniProt P06241); test: as above
FGFR3 = FGFR3 (UniProt P22607); test: as above
Jak2 = Jak2 (UniProt O60674); test: as above
FGFR1 = FGFR1 (UniProt P11362); test: as above
Fes = Fes (UniProt P07332); test: as above
AncSZ = test: as above
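For SH2 binding enrichment of the phosphorylated peptide, bacterial display in this document: peptide library displayed on the E. coli surface as eCPX fusions, selected cells deep-sequenced, score is each peptide's frequency after selection divided by its frequency in the input.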
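For phosphorylation enrichment, bacterial display in this document: 11-residue human phosphosite peptides and single-mutation variants displayed on the E. coli surface, counted by deep sequencing, each peptide's frequency after selection divided by its frequency in the unselected input library; frequency after pTyr selection over input frequency; kinase dosed for 20-30% of maximal phosphorylation in three min.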

Sequence of Hck (P08631 whole entry, looked up): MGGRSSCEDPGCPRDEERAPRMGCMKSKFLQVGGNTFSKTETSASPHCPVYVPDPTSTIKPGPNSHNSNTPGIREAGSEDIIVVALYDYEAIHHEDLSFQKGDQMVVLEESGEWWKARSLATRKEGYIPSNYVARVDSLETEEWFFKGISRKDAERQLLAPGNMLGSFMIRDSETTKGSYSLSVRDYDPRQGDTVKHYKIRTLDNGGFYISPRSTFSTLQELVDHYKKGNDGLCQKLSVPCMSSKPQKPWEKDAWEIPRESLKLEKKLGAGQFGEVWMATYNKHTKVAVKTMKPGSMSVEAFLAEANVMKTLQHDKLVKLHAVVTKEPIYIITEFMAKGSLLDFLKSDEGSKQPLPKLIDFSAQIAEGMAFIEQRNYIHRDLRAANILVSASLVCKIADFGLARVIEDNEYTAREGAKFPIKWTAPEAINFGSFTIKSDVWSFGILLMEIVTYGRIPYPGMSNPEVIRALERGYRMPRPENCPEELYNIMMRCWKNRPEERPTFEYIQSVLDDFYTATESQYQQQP
Sequence of EPHB1 (P54762 whole entry, looked up): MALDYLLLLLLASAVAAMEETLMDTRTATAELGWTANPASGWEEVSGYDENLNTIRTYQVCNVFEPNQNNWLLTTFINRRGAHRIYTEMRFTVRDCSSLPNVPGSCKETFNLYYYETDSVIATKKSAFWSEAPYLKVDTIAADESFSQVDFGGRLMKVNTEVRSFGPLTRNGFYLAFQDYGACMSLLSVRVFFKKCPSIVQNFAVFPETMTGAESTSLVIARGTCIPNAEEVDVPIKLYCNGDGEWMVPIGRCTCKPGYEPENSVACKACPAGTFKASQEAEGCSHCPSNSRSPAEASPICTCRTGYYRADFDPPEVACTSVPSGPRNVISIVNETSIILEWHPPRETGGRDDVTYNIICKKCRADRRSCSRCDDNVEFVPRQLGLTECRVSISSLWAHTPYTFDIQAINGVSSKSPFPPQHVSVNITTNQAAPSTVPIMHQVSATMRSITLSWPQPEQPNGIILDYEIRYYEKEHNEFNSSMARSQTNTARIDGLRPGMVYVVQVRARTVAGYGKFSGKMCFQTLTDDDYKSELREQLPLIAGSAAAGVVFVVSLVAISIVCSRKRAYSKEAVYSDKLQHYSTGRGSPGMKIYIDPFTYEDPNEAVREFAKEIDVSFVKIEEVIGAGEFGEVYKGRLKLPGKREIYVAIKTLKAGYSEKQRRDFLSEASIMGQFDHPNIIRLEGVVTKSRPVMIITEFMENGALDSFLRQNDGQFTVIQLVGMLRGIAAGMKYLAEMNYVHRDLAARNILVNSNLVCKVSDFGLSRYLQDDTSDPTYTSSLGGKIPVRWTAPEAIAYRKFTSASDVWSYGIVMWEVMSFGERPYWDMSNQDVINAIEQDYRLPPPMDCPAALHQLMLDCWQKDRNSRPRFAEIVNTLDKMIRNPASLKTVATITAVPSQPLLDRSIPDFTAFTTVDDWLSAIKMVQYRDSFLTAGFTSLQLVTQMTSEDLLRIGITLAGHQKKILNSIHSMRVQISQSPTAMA
Sequence of FGFR3 (P22607 whole entry, looked up): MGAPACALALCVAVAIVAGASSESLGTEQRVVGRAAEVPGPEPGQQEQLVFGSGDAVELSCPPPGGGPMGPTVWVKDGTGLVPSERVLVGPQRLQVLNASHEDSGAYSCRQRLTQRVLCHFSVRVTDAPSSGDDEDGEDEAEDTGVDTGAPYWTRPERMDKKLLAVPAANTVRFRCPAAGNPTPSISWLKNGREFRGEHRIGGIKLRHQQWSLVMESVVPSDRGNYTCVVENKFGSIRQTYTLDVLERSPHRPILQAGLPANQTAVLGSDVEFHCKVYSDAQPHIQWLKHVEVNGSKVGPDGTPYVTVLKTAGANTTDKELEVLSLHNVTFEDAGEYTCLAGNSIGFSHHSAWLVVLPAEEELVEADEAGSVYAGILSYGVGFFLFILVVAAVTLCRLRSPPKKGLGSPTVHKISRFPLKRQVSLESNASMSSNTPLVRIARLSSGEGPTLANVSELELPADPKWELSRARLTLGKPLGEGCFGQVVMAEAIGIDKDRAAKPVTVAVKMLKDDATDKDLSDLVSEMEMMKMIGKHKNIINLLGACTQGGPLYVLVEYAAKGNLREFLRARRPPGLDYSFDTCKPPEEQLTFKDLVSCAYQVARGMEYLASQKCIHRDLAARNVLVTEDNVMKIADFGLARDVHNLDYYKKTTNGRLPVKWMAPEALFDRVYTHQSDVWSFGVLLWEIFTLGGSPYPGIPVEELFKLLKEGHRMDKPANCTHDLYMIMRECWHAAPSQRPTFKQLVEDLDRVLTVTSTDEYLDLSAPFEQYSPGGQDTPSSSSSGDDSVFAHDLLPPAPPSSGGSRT
Sequence of MERTK (Q12866 whole entry, looked up): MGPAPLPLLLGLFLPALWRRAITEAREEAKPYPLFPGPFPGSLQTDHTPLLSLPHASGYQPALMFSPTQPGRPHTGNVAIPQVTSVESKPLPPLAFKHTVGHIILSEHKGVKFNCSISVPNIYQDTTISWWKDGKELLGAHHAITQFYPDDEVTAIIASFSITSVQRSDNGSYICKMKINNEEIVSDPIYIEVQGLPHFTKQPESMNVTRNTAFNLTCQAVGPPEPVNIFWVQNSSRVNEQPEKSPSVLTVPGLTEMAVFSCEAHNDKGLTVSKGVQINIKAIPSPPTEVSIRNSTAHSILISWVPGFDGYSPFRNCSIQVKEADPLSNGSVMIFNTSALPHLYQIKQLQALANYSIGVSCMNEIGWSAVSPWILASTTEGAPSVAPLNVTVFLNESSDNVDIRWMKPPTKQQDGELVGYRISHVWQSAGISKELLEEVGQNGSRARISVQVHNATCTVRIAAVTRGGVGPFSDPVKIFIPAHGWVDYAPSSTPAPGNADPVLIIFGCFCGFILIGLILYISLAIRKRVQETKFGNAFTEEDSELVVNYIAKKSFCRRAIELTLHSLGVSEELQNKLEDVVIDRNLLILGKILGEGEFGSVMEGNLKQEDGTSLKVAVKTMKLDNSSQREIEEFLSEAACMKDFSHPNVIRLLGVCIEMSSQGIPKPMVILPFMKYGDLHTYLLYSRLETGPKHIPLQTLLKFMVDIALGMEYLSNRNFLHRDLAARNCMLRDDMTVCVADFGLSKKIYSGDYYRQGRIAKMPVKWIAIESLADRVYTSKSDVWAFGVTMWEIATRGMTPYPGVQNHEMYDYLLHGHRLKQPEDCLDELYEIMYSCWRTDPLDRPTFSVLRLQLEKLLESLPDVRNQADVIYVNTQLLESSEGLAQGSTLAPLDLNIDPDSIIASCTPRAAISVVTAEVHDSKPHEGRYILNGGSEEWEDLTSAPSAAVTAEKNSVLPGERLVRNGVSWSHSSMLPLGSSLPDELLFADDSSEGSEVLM
Sequence of FGFR1 (P11362 whole entry, looked up): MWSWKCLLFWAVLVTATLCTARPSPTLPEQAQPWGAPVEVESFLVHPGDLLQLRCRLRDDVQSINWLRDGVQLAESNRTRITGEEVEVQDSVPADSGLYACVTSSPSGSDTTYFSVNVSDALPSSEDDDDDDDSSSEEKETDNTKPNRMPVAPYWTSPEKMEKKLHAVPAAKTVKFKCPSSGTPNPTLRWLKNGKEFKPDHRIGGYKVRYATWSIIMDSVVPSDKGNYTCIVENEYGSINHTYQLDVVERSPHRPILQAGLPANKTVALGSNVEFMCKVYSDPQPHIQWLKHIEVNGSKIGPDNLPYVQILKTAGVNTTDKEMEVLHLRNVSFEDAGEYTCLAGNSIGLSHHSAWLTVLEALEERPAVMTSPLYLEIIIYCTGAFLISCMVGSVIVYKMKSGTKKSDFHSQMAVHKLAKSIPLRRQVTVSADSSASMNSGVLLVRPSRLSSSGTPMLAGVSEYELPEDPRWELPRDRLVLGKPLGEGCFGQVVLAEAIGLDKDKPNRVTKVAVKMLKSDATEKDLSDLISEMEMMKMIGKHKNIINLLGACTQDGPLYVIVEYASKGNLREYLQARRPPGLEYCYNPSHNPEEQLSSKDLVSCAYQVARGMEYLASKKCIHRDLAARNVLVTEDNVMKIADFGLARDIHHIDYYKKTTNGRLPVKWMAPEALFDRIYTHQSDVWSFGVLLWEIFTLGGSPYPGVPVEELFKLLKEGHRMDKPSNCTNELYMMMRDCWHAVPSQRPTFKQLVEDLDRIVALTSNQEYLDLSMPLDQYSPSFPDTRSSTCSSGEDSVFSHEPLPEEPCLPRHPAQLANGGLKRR
Sequence of Fes (P07332 whole entry, looked up): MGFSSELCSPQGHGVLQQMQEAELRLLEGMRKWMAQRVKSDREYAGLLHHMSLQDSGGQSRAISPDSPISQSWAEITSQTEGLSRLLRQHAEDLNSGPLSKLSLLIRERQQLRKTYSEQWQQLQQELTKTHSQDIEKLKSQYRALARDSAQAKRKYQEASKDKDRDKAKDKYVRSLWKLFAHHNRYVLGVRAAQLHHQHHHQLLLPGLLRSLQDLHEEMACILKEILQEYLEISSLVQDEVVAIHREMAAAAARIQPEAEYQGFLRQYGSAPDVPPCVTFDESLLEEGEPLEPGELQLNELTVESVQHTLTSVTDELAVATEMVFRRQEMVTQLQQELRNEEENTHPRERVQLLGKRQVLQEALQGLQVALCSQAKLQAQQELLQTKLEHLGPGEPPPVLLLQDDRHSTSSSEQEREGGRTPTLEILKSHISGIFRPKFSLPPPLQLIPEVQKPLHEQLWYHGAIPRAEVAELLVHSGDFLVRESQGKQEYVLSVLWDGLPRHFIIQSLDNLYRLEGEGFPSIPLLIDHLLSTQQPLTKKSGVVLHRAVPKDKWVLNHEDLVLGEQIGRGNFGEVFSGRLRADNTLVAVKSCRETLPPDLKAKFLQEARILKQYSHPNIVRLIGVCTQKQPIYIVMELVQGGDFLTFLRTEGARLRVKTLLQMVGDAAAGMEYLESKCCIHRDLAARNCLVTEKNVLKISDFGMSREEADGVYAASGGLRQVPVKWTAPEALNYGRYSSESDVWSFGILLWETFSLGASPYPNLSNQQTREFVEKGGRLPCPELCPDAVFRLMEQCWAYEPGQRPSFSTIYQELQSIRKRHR

Sequence | SH2 binding enrichment (Grb2 SH2) | SH2 binding enrichment (SHP2-C SH2) | SH2 binding enrichment (c-Src SH2) | phosphorylation enrichment (MERTK) | phosphorylation enrichment (EPHB1) | phosphorylation enrichment (c-Src) | phosphorylation enrichment (EPHB2) | phosphorylation enrichment (c-Abl (mouse)) | phosphorylation enrichment (Hck) | phosphorylation enrichment (Fer (mouse)) | phosphorylation enrichment (Fyn) | phosphorylation enrichment (FGFR3) | phosphorylation enrichment (Jak2) | phosphorylation enrichment (FGFR1) | phosphorylation enrichment (Fes) | phosphorylation enrichment (AncSZ)
TNIKRYHIAKG [HARS1_Y150_V155G] | 0.93 | 0.972 | 0.867 | 0.405 | 0.311 | 0.408 | 0.39 | 0.503 | 0.367 | 0.33 | 0.409 | 0.356 | 0.368 | 0.351 | 0.479 | 0.506
TPLSAYQIPRT [GAB2_Y324] | 1.04 | 0.853 | 0.792 | 0.703 | 0.415 | 0.435 | 0.466 | 8.8 | 0.29 | 0.586 | 0.365 | 0.317 | 0.615 | 0.408 | 0.539 | 0.593
TQNGVYSAANF [DDX5_Y535_YF] | 0.861 | 0.611 | 0.855 | 6.66 | 1.4 | 5.43 | 1.94 | 2 | 8.3 | 4.42 | 7.62 | 0.443 | 0.444 | 0.489 | 0.541 | 0.56
TRGLEYIVPLM [CLCN4_Y548_G544R] | 0.835 | 0.707 | 0.825 | 0.457 | 0.804 | 0.541 | 0.721 | 0.89 | 0.493 | 0.409 | 0.456 | 1.04 | 2.02 | 1.41 | 0.78 | 1.18
TRSFDYMEGED [FGF7_Y58_G62E_YF] | 0.911 | 0.589 | 0.618 | 0.435 | 0.592 | 0.391 | 1.04 | 0.754 | 0.738 | 0.546 | 0.649 | 0.788 | 1.3 | 0.827 | 1.6 | 1.41
TSHKGYVAFLE [CARD9_Y76_G72S] | 0.877 | 0.724 | 2.64 | 0.38 | 0.451 | 0.354 | 0.404 | 0.602 | 0.38 | 0.315 | 0.353 | 0.554 | 0.676 | 0.477 | 0.762 | 0.707

Further lines, with some results ahead:

SH2 binding enrichment (Grb2 SH2) | SH2 binding enrichment (SHP2-C SH2) | SH2 binding enrichment (c-Src SH2) | Sequence | phosphorylation enrichment (MERTK) | phosphorylation enrichment (EPHB1) | phosphorylation enrichment (c-Src) | phosphorylation enrichment (EPHB2) | phosphorylation enrichment (c-Abl (mouse)) | phosphorylation enrichment (Hck) | phosphorylation enrichment (Fer (mouse)) | phosphorylation enrichment (Fyn) | phosphorylation enrichment (FGFR3) | phosphorylation enrichment (Jak2) | phosphorylation enrichment (FGFR1) | phosphorylation enrichment (Fes) | phosphorylation enrichment (AncSZ)
0.96 | 0.862 | 0.433 | TNYPLYLRSLE [MTM1_Y71_R69P] | 0.551 | 1.01 | 0.499 | 0.727 | 0.668 | 0.654 | 0.555 | 0.603 | 0.987 | 1.28 | 0.671 | 1.36 | 1.18
0.895 | 0.717 | 0.495 | TNYRFYLRSLE [MTM1_Y71_L70F] | 0.423 | 0.619 | 0.41 | 0.532 | 0.835 | 0.558 | 0.421 | 0.48 | 0.855 | 1.09 | 0.438 | 1.18 | 1.19
1.16 | 1.17 | 1.16 | TQPSPYAVYLF [RPGRIP1_Y823_R827L] | 6.5 | 3.03 | 5.65 | 5.25 | 9.15 | 3.73 | 7.18 | 7.04 | 1.1 | 1.01 | 1.34 | 1.68 | 1.06
1.08 | 0.765 | 0.93 | TQRPYYKGGGG [TYROBP_Y112] | 0.553 | 0.39 | 0.438 | 0.303 | 0.573 | 0.377 | 0.419 | 0.417 | 0.455 | 0.537 | 0.558 | 0.666 | 0.49
1.13 | 0.604 | 0.654 | TRDVNYGWVIR [MT-CYB_Y75_I78V] | 1.12 | 0.947 | 0.576 | 1.27 | 0.841 | 0.806 | 1.05 | 0.647 | 0.869 | 1.22 | 0.612 | 1.45 | 1.16
0.547 | 0.538 | 0.315 | TSFQMYDKGLV [IARS2_Y231_F227S_YF] | 0.438 | 0.596 | 0.475 | 0.746 | 0.473 | 0.934 | 0.877 | 0.649 | 0.82 | 1.03 | 0.651 | 0.846 | 0.925
0.789 | 0.844 | 0.503 | TSNNPYFRDQA [RPGRIP1_Y846_A841T] | 0.473 | 0.395 | 0.721 | 0.374 | 0.628 | 0.454 | 0.396 | 0.51 | 0.544 | 0.901 | 0.451 | 0.796 | 0.665
0.773 | 0.778 | 0.945 | TTGGFYSYGGG [KRT24_Y120_A115T] | 13.9 | 1.18 | 1.25 | 1.1 | 0.692 | 2.39 | 4.54 | 2.56 | 0.664 | 0.763 | 0.528 | 1.04 | 1.03
0.962 | 0.83 | 0.533 | TTKVSYRASQP [MKI67_Y1737] | 0.352 | 0.3 | 0.343 | 0.337 | 0.638 | 0.326 | 0.432 | 0.311 | 0.334 | 0.475 | 0.355 | 0.489 | 0.602
